Measurements published in patent CN106754740A.

Biological target: 纯化的重组蛋白MDR-1 (原核表达, PET28a-MDR-1, 大肠杆菌BL21) (human) (UniProt P08183)
Experiment: direct ELISA, purified antibody diluted 1:200 to 1:12800 on plate coated with purified MDR-1 protein (10 μg/ml), goat anti-mouse IgG-HRP, OD450

UniProt P08183, sequence (P08183 whole entry): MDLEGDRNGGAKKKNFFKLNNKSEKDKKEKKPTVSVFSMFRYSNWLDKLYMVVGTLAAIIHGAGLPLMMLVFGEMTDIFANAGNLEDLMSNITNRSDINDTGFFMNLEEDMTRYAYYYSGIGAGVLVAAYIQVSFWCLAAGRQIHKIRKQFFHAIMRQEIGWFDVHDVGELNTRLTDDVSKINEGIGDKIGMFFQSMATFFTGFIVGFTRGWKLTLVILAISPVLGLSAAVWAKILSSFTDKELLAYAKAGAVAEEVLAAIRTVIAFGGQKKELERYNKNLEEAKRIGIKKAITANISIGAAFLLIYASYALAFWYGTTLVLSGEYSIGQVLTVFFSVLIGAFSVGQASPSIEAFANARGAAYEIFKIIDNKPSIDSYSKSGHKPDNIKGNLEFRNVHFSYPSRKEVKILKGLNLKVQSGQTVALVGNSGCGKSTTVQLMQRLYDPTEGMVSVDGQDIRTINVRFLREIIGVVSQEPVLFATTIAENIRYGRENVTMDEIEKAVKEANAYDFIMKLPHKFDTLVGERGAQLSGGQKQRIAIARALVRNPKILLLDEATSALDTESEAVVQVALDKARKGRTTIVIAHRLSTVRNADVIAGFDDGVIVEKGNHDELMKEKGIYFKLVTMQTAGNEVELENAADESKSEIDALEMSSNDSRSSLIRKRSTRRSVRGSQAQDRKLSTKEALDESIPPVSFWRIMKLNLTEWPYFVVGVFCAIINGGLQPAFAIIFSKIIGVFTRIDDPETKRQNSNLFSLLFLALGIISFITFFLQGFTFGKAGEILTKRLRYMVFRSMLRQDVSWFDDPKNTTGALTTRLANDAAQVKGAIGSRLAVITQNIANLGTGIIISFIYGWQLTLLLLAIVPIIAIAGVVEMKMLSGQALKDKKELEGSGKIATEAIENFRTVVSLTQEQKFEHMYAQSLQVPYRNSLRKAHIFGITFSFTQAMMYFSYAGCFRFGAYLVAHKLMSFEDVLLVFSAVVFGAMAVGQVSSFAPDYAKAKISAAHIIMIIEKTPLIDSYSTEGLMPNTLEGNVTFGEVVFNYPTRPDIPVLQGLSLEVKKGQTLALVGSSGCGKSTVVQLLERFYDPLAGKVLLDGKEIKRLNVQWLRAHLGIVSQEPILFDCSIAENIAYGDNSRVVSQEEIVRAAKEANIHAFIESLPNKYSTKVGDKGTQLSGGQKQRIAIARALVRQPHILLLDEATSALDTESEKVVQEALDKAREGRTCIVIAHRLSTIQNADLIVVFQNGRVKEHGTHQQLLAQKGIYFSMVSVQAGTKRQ

B1: 小鼠抗人MDR-1单克隆抗体 (杂交瘤细胞株6C6, CGMCC No. 6917 产生) (antibody, part only; not given: light chain variable region, constant regions, V domains shown, part only)
VH: LGISTMNFGLSWVFLVLVLKGVQCEVKLVESGGGLVKPGGSLKLSCAASGFTFSNYAMSWVRQTPEKRLEWVASISSGGGGSTYYPDSVKGRFTISRDNARNILYLLMSSLRSEDTAMYYVCVMSLSEQSSCINLP
- ELISA滴度 (dilution (1:x)): > 10000
